Two substances from patent US20110268660A1, “METHOD FOR DETECTING DYSPLASIA” (priority 2008, published 2011) can be followed below.

Experiment [1] concerns the target human recombinant EGFR/Fc chimera (R&D systems, cat. no 344-ER) (human) (UniProt P00533). Kind of experiment: fluorescence polarization, 5 nM dye-labelled ligand, EGFR/Fc titrated 0-258 nM, in solution. For orientation: Polarisation of emitted light reports the rotation of a fluorescent probe.
In experiment [2] the target is T1, human EGFR (Homo sapiens, UniProt P00533).
T1 construct: purchased R&D systems 344-ER
Nature of the experiment: Fluorescence polarization binding assay. Particulars: dye-labelled ligand 5 nM; human recombinant EGFR/Fc chimera 0-258 nM; 10 min at 30° C.; triplicates; read-out: Kd value towards human EGFR.
Description: The fluorescence polarization binding measurements were performed as triplicates in 384-well microplates in a volume of 40 μL in binding buffer (PBS, 0.01% Tween-20, pH 7.5) using a Tecan Safire fluorescence polarisation plate reader at ex646/em678 nm. The concentration of dye-labelled ligand was held constant (5 nM) and the concentrations of the target (human recombinant EGFR/Fc chimera from R&D systems, cat. no 344-ER) was varied from 0-258 nM. Binding mixtures were equilibrated in the microplate for 10 min at 30° C.
Data fitting was performed via nonlinear regression using SigmaPlot software (version 10) to obtain the Kd value.

By Kd is commonly meant a measure of binding affinity in units of concentration. In the case of “anti-EGFR Affibody His6-ZEGFR:1907-Cys(Cy5**) (Compound 14) (designed binder)”, the Kd in experiment [1] was found to be 4.1 nM.

On to “anti-EGFR Affibody His6-ZEGFR:1907-Cys(Cy5**) [Compound 14]”, for which, in experiment [2], the Kd is 4.1 nM.
